In the nanobody polyreactivity screen of Harvey et al. (2022):

Assay: yeast display, Sf9 membrane polyspecificity reagent, FACS + sequencing; frameworks hold sequencing errors
Method in brief: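 In a synthetic yeast display library (Saccharomyces cerevisiae BJ5465), nanobody expression was induced with galactose for 36–48 hours. FACS gates were set low and high (top ~1%) using anti-HA fluorescence for expression and streptavidin fluorescence for binding of the Sf9 membrane reagent. Each polyreactivity label is drawn from the gate of origin.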

QVQLVESGGGLVQAGGSLRLSCAASGFIFYSKAMGWYRQAPGKERELVAAISWGGGRTYYADSVKGRFTISRDNAKNTVYLQMNSLKPEDTAVYYCAAPWRRIGYSTRGYTLYDYWGQGTQVTVSS
polyreactivity (PSR sort gate): high polyreactivity

QVQLVESGGGLVQAGGSLRLSCAASGRIFVTYAMGLYRQAPGKERELVAVISWSGGSTYYADSVKGRFTISRDNAKNTVYLQMNSLKPEDTAVYYCARGLRKVRFDYWGQGTQVTVSS
polyreactivity (PSR sort gate): low polyreactivity

QVQLVESGGGLVQAGGSLRLSCAASGYTFQYYTMGWYRQAPGKERELVAAISSSGGRTYYADSVKGRFTISRDNAKNTVYLQMNSLKPEDTAVYYCAATYSYRSDYYSWGQGTQVTVSS
polyreactivity (PSR sort gate): high polyreactivity

QVQLVESGGGLVQAGGSLRLSCAASGITLDNYVMGWYRQAPGKERELVAAISRTSGRTYYADSVKGRFTISRDNAKNTVYLQMNSLKPEDTAVYYCAAETGYTIRYDYWGQGTQVTVSS
polyreactivity (PSR sort gate): high polyreactivity

QVQLVESGGGLVQAGGSLRLSCAASGRTFYYYAMGWYRQAPGKERELVADITYSGGSTYYADSVKGRFTISRDNAKNTVYLQMNSLKPEDTAVYYCAARVTVSHWPYYYDSYDYWGQGTQVTVSS
polyreactivity (PSR sort gate): low polyreactivity

QVQLVESGGGLVQAGGSLRLSCAASGRTFARYAIGWSRQAPGKERELVAAITRRGGSTYYADSVKGRFTLSRDNAKNTVYLQMNSLKPEDTAVYYCAAHYPNFGIGAYEYWGQGTQVTVSS
polyreactivity (PSR sort gate): high polyreactivity

QVQLVESGGGLVQAGGSLRISCAASGIIFAANTMGWYRQAPGKERELVAAITSGGSTKYADSVKGRFTISRDNAKNTVYLQMNSLKPEDTAVYYCAAQYRYQRYSYAMEYWGQGTQVTVSS
polyreactivity (PSR sort gate): high polyreactivity

QVQLVESGGGLVQAGGSLRLSCAASGNIFTIYAMGWYRQAPGKERELVAAIDSDGTTYYADSVKGRFTISRYNAKNTVYLQMNSLKPEDTAVYYCAAGGRSVRYNYWGQGTQVTVSS
polyreactivity (PSR sort gate): high polyreactivity

QVQLEESGGGLLQAGGSLRLTCAASGFTFYYYAMGWYRLATGKERYLVAAISGGGGSTYYADSVKGRFTISRDNAKNTVYLPMNSMKPEDTAVYYCAAVGSWRYNYDYDYWGQGSQVTVSS
polyreactivity (PSR sort gate): high polyreactivity

QVQLVESGGGLVQAGGSLRLSCAASGRIFIYYTMGWYRPAPGKERELVASITWSGGRTYYADSVKGRFTISRDNAKNTVYLQMNSLKPEDNAVYYCNAGYSIGLVAYGYWGQGTQVTVSS
polyreactivity (PSR sort gate): low polyreactivity

QVQLVESGGGLVQAGGSLRLSCAASGSIFNWYAMGWYRQARGKERELVAAISYSGTRTYYADSVKGRFTISRDNAKNTVNLQLNSLKPEDTAVYYCNRAYYTRWYTKFDYWGQGTQVTVSS
polyreactivity (PSR sort gate): high polyreactivity

QVQLEESGGGLVQAGGSLRLICAAYGIIFYIYTMGWYRQEPVKERELVAAINPGGSRYYADSVKGRFTISRDNAKNTVYLQMNSLKPEDTAVYYCNKLSYGRSGYWGQGTEVTVSS
polyreactivity (PSR sort gate): high polyreactivity

QVQLVESGGGLVQAGGSLRLSCAASGLTFNVYAMGWYRPAPGKERELVASITKRGGSTYYADSVKGRFTISRDNAKNTVYLQMNSLKPEDTAVYYCAADGLTGSKYRATGYYWGQGTQVTVSS
polyreactivity (PSR sort gate): high polyreactivity

QVQLVESGGGLVQAGGSLRLSCAASGRTFGKYAMGWYRQAPGKERELVATISLSGGSTYYADSVKGRFTISRDNAKNTVYLQMNSLKPEDTAVYYCAARRKFDYWGQGTQVTVSS
polyreactivity (PSR sort gate): high polyreactivity

QVQLVETGGGLVQAGGSLRLSCAASGRTFVGNAKGWYRPAPGQERELVADITWSGDITYYADSVKGRFTISRDHAKNSVYLQMNSLKPEDTAVYYCAADYHRRRTDYDYWGQGTQVTVSS
polyreactivity (PSR sort gate): low polyreactivity

QVQLVESGGGLVQAGGSLRLSCAASGSTFSIYAMGGDRQAPGKERELVAAITRRSGSTYYADSVKGRFTISRDNAKNTVSLQMNSLKPEDTAVYYCAADTWRTDYTSSYYKNRDSWGQGTQVTVSS
polyreactivity (PSR sort gate): high polyreactivity

QVHLVESGGGLVQAGGSLRLSCAASGRIFRYYAIGWYRQAPGKERELVAAITWRGDSTYYADSVKGRFTISRDNAKNTVYLQMNSLKPEDTAVYYCNKRWTDKYDSWGQGTQVTVSS
polyreactivity (PSR sort gate): high polyreactivity

QVQLVESGGGLVQAGGSLRLICAASGITFRRYTMGWYREAPGKERELVATISLSDGNTYYADSVKGRFTISRDNAKYTLYLQMNSLKPEDTAVYYCNARHTWHQTYDYWGQGTIVTVSS
polyreactivity (PSR sort gate): low polyreactivity

QVQLVESGGGLVQAGGSLRLSCAASGSTIRSYAMGWYRQATRKERELVARIAYSSGRTYYADSVKGRFTISRDNAKNTVYLQMNSLKPEDTAVYYCAVRGYGYGYDYWGQGTQVTVSS
polyreactivity (PSR sort gate): high polyreactivity

QVQLVESGGGLVQAGGSLRLSCAASGRILPWYAMGWYRQAPGKERELVARIRSTDSTNYADSVKGRFTISRDNAKNTVYLQMNSLKPEDTAVYYCAKVQWGFPYAWLGSDYWGQGTQVTVSS
polyreactivity (PSR sort gate): low polyreactivity

QVQLVESGGGLVQAGGSLRLSCAASGSIFSFYAMGWYRQAPGKERELVATISSGDNTNYADSVKGRFTISRDNAKNTVYLQMNSLKPEDTAVYYCAADAWGVDREYDYWGQGTQVTVSS
polyreactivity (PSR sort gate): low polyreactivity

QVQLVESGGGLVQAGGSLRLSCAASGRTFDGNTMGWYRQAPGKERELVAAITKRGGSTYYADSVKGRFTISRDNAKNTVYLQMNSLKPEDTAVYYCNAVWRNWYARVDEYDYWGQGTQVTVSS
polyreactivity (PSR sort gate): high polyreactivity

QVQLVESGGGLVQAGGSLRLSCAASGSILPRYGMGWYSQAPGKEREFVAAISWRGGRTYYADSVKGRFTISRDTAKHTVYVQMNSLKPEDTAVYYCAARAHIYTRLDYWGQGTEVTVSS
polyreactivity (PSR sort gate): high polyreactivity

QDQLVESGGGLVQAGGSLRLSCAASGFTFSAYAMGWYRQAPGKERELVAAISTRGGSTRYADSVKGRFTISRDNAKNTVYLQMNSLKPEDTAVYYCAVEVYSYLYYETYPTEYEYWGQGTQVTVSS
polyreactivity (PSR sort gate): high polyreactivity

QVQLVESGGGLVQAGGSLRLSCAASGRTFGYYAMGWYRPAPGKERELVAAISSGGGTYYADSVKGRFTISRDNAKNTVYLQRNSLNPEASAVYYIAATGWLYWGQFYYWGQGTLVTVSS
polyreactivity (PSR sort gate): low polyreactivity

QVQLVESGGGLVQAGASLSLSSAASGYIFYRYAMGWYRQAPGKERELVAAISSNGVSTYYADSVKGRFTISRDNAKNTVYLQLISLKPEDTAVYYCARDVYASPRRYNSRYNYWGQGTQVTVSS
polyreactivity (PSR sort gate): low polyreactivity

QVQLVESGGGLVQAGGSLRLSCAASGFTFTDYAKGWYRQAPGKERELVAAITKGGGRTYYADSVKWRFTISRDNAKNSVYLQMNSQKPEDTAVYYCNARYQVPYGYWGQGTQVTVSS
polyreactivity (PSR sort gate): low polyreactivity

QVQLVESGGGLVQAGGSLRLSCDASGNTFLWYAMGWYRQAPGKERELVAAITYSGGSTYYADSVKGRFTISRDNAKITVYLQMNSLKPEDTARYYCNADYFGYDYVEYGYWGQGTQVTVSS
polyreactivity (PSR sort gate): low polyreactivity

QVQLVESRGRLVQAGGSLRLSCAASGITFYVYTMGWYRQAPGKERELVAAINGSGGSTNYADSVKGRFTISRDNAKNSVYLHMNSLKTEDTAVYYCAADWSLRLYDYWGQGTQVTVSS
polyreactivity (PSR sort gate): low polyreactivity

QVHLVESGGGLVQAGGSLRLSCAASGRIFTRNAMVWYRQAPGKERELVAAISHSGGSTYADSVKGRFTISRDNAKNTVYLQMNSLKPEDTAVYYCAAKYYFEWNSALDYWGQGTQVTVSS
polyreactivity (PSR sort gate): low polyreactivity

QVQLVESGGGLVQAGGSLRLSCAASVRIFFRYAMGWYRQAPGKERELVAAIRKSGGSTYYADSVKGRFTISRDNAKNTVYFQMNSLKPEDTAVYYCAADVYYYYGRKYNYWGQGTQVTVSS
polyreactivity (PSR sort gate): low polyreactivity

QVQLVESGGGLVQAGGSLRLSCAASGSIFNYYAMGWYRQAPGKERELVAAISSGDTTYYADSVKGRFTISRDNAKNTVYLQMNSLKPQDTAVYYCAAKPRSQVRYGYWGQGTQVTVSS
polyreactivity (PSR sort gate): low polyreactivity

QFQLVESGGGLVQAGGSLRLSCAASGRIFDVNAMGWSRQAPGKESELVAAISTRGGGTYYADSVKGRFTISRDNAKNTVYLQMTSLKPEDTAVYYCNVVRRYGGRGIDYWGQGTQVTVSS
polyreactivity (PSR sort gate): low polyreactivity

QVQLVESGGGLVQAGGSLRLSCAASGRTFYSNAMGWYRQAPGKERELVATISSSGGSTYYADSVKGRFTISRDNAKNTVYLQMNSLKPEDTAVYYCAADPSGDYWGQGTQVTVSS
polyreactivity (PSR sort gate): low polyreactivity

QVQLVESGGGLVQAGGSLRLSCAASGRIFTINAMGWYRQAPGKERELVATISDRGGSTYYADTVKGRFTISRDNAKNTVYLQMNSLKPEDTAVYYCAARWGRGLEFDYWGQGTQVTVSS
polyreactivity (PSR sort gate): high polyreactivity

QVQLVESGGGLVQSGGSLRLSCAASGITFDYYDMGWYRQAPGKERELVATITSDGSTTYADSVKGRFTISRDNAKNTVYLQMNSLKPEDTAVYYCDKRYWSYQYGYRMYYWGQGTQVTVSS
polyreactivity (PSR sort gate): high polyreactivity

QDQLVESGGGLVQAGGSLRLSCAASVSTFVNYAMGWYRQAPGKEMELVAAMSWSGGSTYYADSVKGRFTISRDNAKNTVYLQMNSLKPEDTAVYYCAVYAYWRFRTYYYWGQGTQVTVSA
polyreactivity (PSR sort gate): high polyreactivity

QVQLVESGGFLVQAAGSLRLSCDASGFTFSSYSMGWYRQAPGKERELVAAISTRGGSTYYADSVKGRFTISLDNAMNSVYLLLNSLKPEDTADYYCATGGRGGRRYDYWGQGTQVTVSS
polyreactivity (PSR sort gate): low polyreactivity

QVQLEESGGGLVQAGGSLRLSCAASGRIFGYYPMGWYRQATGKERELVAGISRSGGSTYYADSVKGRFTISRDNAKNTVFLQMISLKPEDTAVYYCAKRVSYYGRYRPYDYWGQGTQVTVSS
polyreactivity (PSR sort gate): high polyreactivity

QVQHVESGGGVVQAGGSLRLSCAASVRTFRYYDMGWYRQAPGTERELVAAITSRGGSSYYADSVKGRFTISRDNAKYTVYLQMNSLKPEDTAVYYCNAYPVQIFYLGNRQYNYWGQGTQVTVSS
polyreactivity (PSR sort gate): high polyreactivity

QVQLVESGGGLVQAGGSLRLSSAASGFIFTDYAMGWYIEAPGKEREFVAAIDWSGGNTYYADSVKGRFTISRDNAKNTVYLQMNSLKPEDTAVYYCAASGSAREYDYWGQGSQVTVSS
polyreactivity (PSR sort gate): low polyreactivity

QVQRVESGGGLVQAGGSLRLSCAASGLIFYRYVMGWYRQAPGKETELVAAISGNGASTYYADSVKGRFTISRDNAKNTVYLQMHSLKPEDTAVYYCNADVYVSSKTHSSSPQWWGYDYWGQGTQVTVSS
polyreactivity (PSR sort gate): low polyreactivity

QVQLVESGGGLVQAGGSLRLICAASGSIFAYNAMGWYRQAPGKERELVAAITDSAGSTYYADSVKGRFTISRDNAKNTVYLQMYSLKPEDTAVYYGAKYTTRGVYRYWPKDMDYWGQGTQVTVSS
polyreactivity (PSR sort gate): low polyreactivity
